Assay results published in article PMC5742583, “A Functional Analysis on the Interspecies Interaction between Mouse LFA-1 and Human Intercellular Adhesion Molecule-1 at the Cell Level” (Frontiers in Immunology, 2017).

Experiments:
[1] = system: LFA-1 in the mouse T cell line EL4; assay: Binding of ICAM-1 chimeras to LFA-1 on EL4 cells by flow cytometry; assay type: cell-based; settings: mouse or human D1D5Fc 0.1 and 5 µg, 4°C 45 min; representative experiment
Experimental: The ability of human D1D2Fc and mouse and human D1D5Fc to recognize LFA-1 on mouse cells was analyzed by flow cytometry in the mouse thymic lymphoma cell line EL4. EL4 cells were incubated with different concentrations of human D1D2Fc, mouse and human D1D5Fc and human IgG1 control at 4°C for 45 min, washed twice with FACS buffer (PBS, 5% FCS, 0.1% NaN3), and then incubated with PE-conjugated goat anti-human IgG (Fcγ fragment specific; Jackson ImmunoResearch). After a washing step with FACS buffer, cells were analyzed by FACS using a FACS Calibur with CellQuest Pro software (BD). As control cells were incubated with an antibody against mouse CD11a (LFA-1) before adding human D1D2Fc.
Figure 2 Analysis of D1D2Fc binding to LFA-1 in EL4 cells by flow cytometry. (A) Different amounts of D1D2Fc (0.1, 1, and 10 µg) or human IgG1 control (10 µg) were incubated with EL4 cells. After washing out non-bound proteins, cells were incubated with PE-conjugated goat anti-human IgG Fcγ Ab and analyzed by flow cytometry. As a control EL4 cells were pretreated with a mouse LFA-1 blocking antibody (anti LFA-1) before incubating with 10 µg of D1D2Fc. Histograms show a representative experiment. […] After washing out non-bound proteins, cells were incubated with PE-conjugated goat anti-human IgG Fcγ Ab and analyzed by flow cytometry. […]

mouse macrophages [2] = assay: Mouse macrophage adhesion to human ICAM-1 (D1D5Fc)-coated plates; assay type: cell-based; settings: plates coated with 5 µg human D1D5Fc; compared with mouse D1D5Fc; MTT
Experimental: (§1) Mouse macrophages were differentiated from mouse bone marrow as previously described ([37]). Briefly, bone marrow cells isolated from mouse femur were cultured in DMEM 10% FBS, 5% horse serum, and 30% supernatant of L929 cell culture as a source of M-CSF at a density of 10^6/cm^2 for 7–8 days. Macrophage differentiation was analyzed in the same way as human macrophages but using CD11b-APC and CD11c-PE (BD) antibodies.
(§2) Freshly isolated monocytes or differentiated macrophages were washed twice with PBS and incubated with trypsin (PAN Biotech) for 30 min at 37°C 5% CO2. After that, cells were scraped gently from the plate and resuspended at a final concentration of 10^6 cells/ml in complete RPMI medium. Subsequently, 10^5 macrophages and 5 × 10^5 monocytes were added to each well and incubated with several concentrations of human D1D2, D1D2Fc, D1D5Fc, mouse D1D5Fc, control human IgG1 20 µg or lovastatin 100 µM at 37°C 5% CO2 overnight. Next day, every well was washed twice with PBS, complete RPMI medium was added and the number or adherent remaining cells was quantified by a MTT colorimetric test ([38]). In some experiments, plates previously coated with human and mouse D1D5Fc were used. […]
(§3) Figure 7 Human intercellular adhesion molecule (ICAM)-1 blocks LFA-1-mediated mouse macrophage cell adhesion. […] (B) Macrophage phenotype was analyzed by flow cytometry testing the expression CD11b and CD11c. […]

human LFA-1 = settings: purified cell-free models; ref [29]; cited from earlier work
Text: Humanized mice are widely used as in vivo models to study the molecular basis of immune-related disorders as well as the efficacy of potential drugs ([23]). In these mice, the native gene of interest is replaced by its human homolog or the immune system is eliminated and reconstituted with its human counterpart. In addition, these mice can be used to enhance the engraftment of human cancer cells allowing in vivo studies of cancer progression and treatment. Here, a major obstacle to analyze human cell function, either healthy or transformed, and disease is the lack of species cross-reactivity o ...

[3] = system: gp33-pulsed EL4 cells killed by mouse Tc cells (ICAM-1/LFA-1); assay: CD8+ T cell-mediated cytotoxicity on EL4; assay type: cell-based; settings: ICAM-1 proteins, several (increasing) amounts, preincubation 45 min 37°C, effector:target 10:1, 4 h, annexin-V/7-AAD by FACS, three experiments by duplicate
mouse macrophages [4] = assay: Mouse macrophage adhesion to mouse ICAM-1 (D1D5Fc)-coated plates; assay type: cell-based; settings: plates coated with 5 µg mouse D1D5Fc; compared with human D1D5Fc; MTT
Experimental: as §1, §2, §3

B1: human D1D5Fc: human Fc chimera containing the five extracellular domains of ICAM-1, R&D systems (protein)
chain: QTSVSPSKVILPRGGSVLVTCSTSCDQPKLLGIETPLPKKELLLPGNNRKVYELSNVQEDSQPMCYSNCPDGQSTAKTFLTVYWTPERVELAPLPSWQPVGKNLTLRCQVEGGAPRANLTVVLLRGEKELKREPAVGEPAEVTTTVLVRRDHHGANFSCRTELDLRPQGLELFENTSAPYQLQTFVLPATPPQLVSPRVLEVDTQGTVVCSLDGLFPVSEAQVHLALGDQRLNPTVTYGNDSFSAKASVSVTAEDEGTQRLTCAVILGNQSQETLQTVTIYSFPAPNVILTKPEVSEGTEVTVKCEAHPRAKVTLNGVPAQPLGPRAQLLLKATPEDNGRSFSCSATLEVAGQLIHKNQTRELRVLYGPRLDERDCPGNWTWPENSQQTPMCQAWGNPLPELKCLKDGTFPLPIGESVTVTRDLEGTYLCRARSTQGEVTRKVTVNVLSPRYE
modifications: left off: Fc, end not stated, kept
notes: human Fc chimera containing the five extracellular domains of ICAM-1, R&D systems
Question: Which results are given for B1?
Answer: binding to EL4 cells [1]: binding of human ICAM-1 was higher than binding of mouse ICAM-1; adhesion of mouse macrophages to coated plate (mouse macrophages [2]): similarly adhered

B2: mouse ICAM-1: mouse ICAM-1, purified cell-free models of ref [29] (protein, UniProt P13597 28-537, looked up)
Intercellular adhesion …: QVSIHPREAFLPQGGSVQVNCSSSCKEDLSLGLETQWLKDELESGPNWKLFELSEIGEDSSPLCFENCGTVQSSASATITVYSFPESVELRPLPAWQQVGKDLTLRCHVDGGAPRTQLSAVLLRGEEILSRQPVGGHPKDPKEITFTVLASRGDHGANFSCRTELDLRPQGLALFSNVSEARSLRTFDLPATIPKLDTPDLLEVGTQQKLFCSLEGLFPASEARIYLELGGQMPTQESTNSSDSVSATALVEVTEEFDRTLPLRCVLELADQILETQRTLTVYNFSAPVLTLSQLEVSEGSQVTVKCEAHSGSKVVLLSGVEPRPPTPQVQFTLNASSEDHKRSFFCSAALEVAGKFLFKNQTLELHVLYGPRLDETDCLGNWTWQEGSQQTLKCQAWGNPSPKMTCRRKADGALLPIGVVKSVKQEMNGTYVCHAFSSHGNVTRNVYLTVLYHSQNNWTIIILVPVLLVIVGLVMAASYVYNRQRKIRIYKLQKAQEEAIKLKGQAPPP
Question: Which “binding to human LFA-1” value (human LFA-1) does the source give for B2 here?
Answer: The value was “binds human LFA-1”.

B3: mouse D1D5Fc: mouse Fc chimera containing the five extracellular domains of ICAM-1, R&D systems (protein)
chain: QVSIHPREAFLPQGGSVQVNCSSSCKEDLSLGLETQWLKDELESGPNWKLFELSEIGEDSSPLCFENCGTVQSSASATITVYSFPESVELRPLPAWQQVGKDLTLRCHVDGGAPRTQLSAVLLRGEEILSRQPVGGHPKDPKEITFTVLASRGDHGANFSCRTELDLRPQGLALFSNVSEARSLRTFDLPATIPKLDTPDLLEVGTQQKLFCSLEGLFPASEARIYLELGGQMPTQESTNSSDSVSATALVEVTEEFDRTLPLRCVLELADQILETQRTLTVYNFSAPVLTLSQLEVSEGSQVTVKCEAHSGSKVVLLSGVEPRPPTPQVQFTLNASSEDHKRSFFCSAALEVAGKFLFKNQTLELHVLYGPRLDETDCLGNWTWQEGSQQTLKCQAWGNPSPKMTCRRKADGALLPIGVVKSVKQEMNGTYVCHAFSSHGNVTRNVYLTVLYHSQNN
modifications: left off: Fc, end not stated, kept
notes: mouse Fc chimera containing the five extracellular domains of ICAM-1, R&D systems
Question: For B3, which “inhibition of Tc cell-mediated cell death of EL4” value [3] is on record?
Answer: Its value is “similarly prevented cell death”.

Question: What about the “inhibition of Tc cell-mediated cell death of EL4” value ([3]; listed as mouse ICAM-1 (D1D5Fc)) of the same molecule?
Answer: The value was “inhibited cell death”.

Question: And the “binding to EL4 cells” value [1]?
Answer: The value was “bound to EL4 cells”.

Question: And the “adhesion of mouse macrophages to coated plate” value (mouse macrophages [4])?
Answer: Its value is “similarly adhered”.
